According to paper PMC5831843, “Creating a more robust 5-hydroxymethylfurfural oxidase by combining computational predictions with a novel effective library design” (Biotechnology for Biofuels, 2018):

How the values were obtained:
O=Cc1ccc(CO)o1 = system: T1, O=Cc1ccc(CO)o1; experiment: purified protein; type: biochemical, Methylovorus sp. MP688; details: 50 mM phosphate pH 8.0, 25 °C, O2 as electron acceptor
T1 construct: full-length, N-terminal His6x-SUMO fusion kept, recombinant from E. coli (pET SUMO / pBAD SUMO), FAD-containing

purified protein = substrate: O=Cc1ccc(CO)o1; experiment: purified protein; details: 50 mM phosphate pH 8.0, 25 °C, O2 as electron acceptor

## HMFO (HMF oxidase) (Methylovorus sp. MP688; A419Y/A435E/G356H/H74Y/I73V/T414K/V367L)
O=Cc1ccc(CO)o1
  Km: 630 µM
  kcat: 11.8 s⁻¹
  kcat/Km: 18700 M⁻¹ s⁻¹

B1: HMFO (HMF oxidase) (Methylovorus sp. MP688) (protein)
chain: MTDTIFDYVIVGGGTAGSVLANRLSARPENRVLLIEAGIDTPENNIPPEIHDGLRPWLPRLSGDKFFWPNLTIHRAAEHPGITREPQFYEQGRLLGGGSSVNMVVSNRGLPRDYDEWQALGADGWDWQGVLPYFIKTERDADYGDDPLHGNAGPIPIGRVDSRHWSDFTVAATQALEAAGLPNIHDQNARFDDGYFPPAFTLKGEERFSAARGYLDASVRVRPNLSLWTESRVLKLLTTGNAITGVSVLRGRETLQVQAREVILTAGALQSPAILLRTGIGPAADLHALGIPVLADRPGVGRNLWEHSSIGVVAPLTEQARADASTGKAGSRHQLGIRASSGVDPATPSDLFLHIGADPVSGLASAVFWVNKPSSTGWLKLKDADPFSYPDVDFNLLSDPRDLGRLKAGLRLITHYFAAPSLAKYGLALALSRFAAPQPGGPLLNDLLQDEAALERYLRTNVGGVWHASGTARIGRADDSQAVVDKAGRVYGVTGLRVADASIMPTVPTANTNLPTLMLAEKIADAILTQA
Purified protein
  Km: 1520 µM
  kcat: 13.7 s⁻¹
  kcat/Km: 9030 M⁻¹ s⁻¹
